Measurements as given in the Human Domainome abundance scans (Beltran et al. 2025).
± gives the uncertainty stated by the source.

B1: Neutrophil cytosol factor 2, residues 456 to 514; numbered along this chain, P19878 (parent)
chain: LKKGSQVEALFSYEATQPEDLEFQEGDIILVLSKVNEEWLEGECKGKVGIFPKVFVEDC

Variants of: B1
Assay: abundance fitness (aPCA) (normalised: wild type 0, dead -1); higher = more abundant; growth selection in yeast, the domain comes from the species named
Settings: Homo sapiens
In the case of F51G, the abundance fitness is reported as -0.425 ± 0.097. For F51C, the abundance fitness was -0.247 ± 0.11. In the case of F51P, the abundance fitness is reported as -0.924 ± 0.47. F51R gave an abundance fitness of -0.716 ± 0.17. L21M showed an abundance fitness of -0.509 ± 0.29. L21P gave an abundance fitness of -0.529 ± 0.2. In the case of L21C, the abundance fitness is reported as -0.585 ± 0.14. For L21S, the abundance fitness was -0.522 ± 0.12. With L21A the abundance fitness was -0.565 ± 0.14. L21I showed an abundance fitness of -0.184 ± 0.11. P18H showed an abundance fitness of -0.537 ± 0.17. Work on P18V yielded an abundance fitness of -0.648 ± 0.17. Work on P18D yielded an abundance fitness of 0.315 ± 0.12. In the case of P18T, the abundance fitness is reported as -0.599 ± 0.19. P18K showed an abundance fitness of -0.558 ± 0.38. Work on P18F yielded an abundance fitness of -0.634 ± 0.14. Work on P18W yielded an abundance fitness of -0.711 ± 0.24. P18C gave an abundance fitness of -0.691 ± 0.14. For N36Y, the abundance fitness was -0.754 ± 0.2. N36K gave an abundance fitness of 0.093 ± 0.23. Variant N36L has an abundance fitness of -0.968 ± 0.2. With N36H the abundance fitness was -0.276 ± 0.13. N36R gave an abundance fitness of -0.963 ± 0.19. N36T gave an abundance fitness of -0.867 ± 0.22. In the case of N36D, the abundance fitness is reported as -0.477 ± 0.17. For V7S, the abundance fitness was -0.287 ± 0.17. Work on V7R yielded an abundance fitness of -0.343 ± 0.2. Variant V7A has an abundance fitness of -0.662 ± 0.29. With V7T the abundance fitness was 0.249 ± 0.18. For V7W, the abundance fitness was -0.999 ± 0.48. Work on G42E yielded an abundance fitness of -0.237 ± 0.21. With G42L the abundance fitness was -0.569 ± 0.14. G42V gave an abundance fitness of -0.748 ± 0.16. G42A gave an abundance fitness of -0.146 ± 0.13. Work on G42F yielded an abundance fitness of -0.509 ± 0.12. In the case of G42I, the abundance fitness is reported as -0.473 ± 0.15. Variant T16I has an abundance fitness of -0.926 ± 0.23. With T16Q the abundance fitness was -0.158 ± 0.43. T16A gave an abundance fitness of -0.475 ± 0.16. T16G gave an abundance fitness of -0.192 ± 0.089. Work on T16E yielded an abundance fitness of -0.368 ± 0.35. V48F showed an abundance fitness of -0.505 ± 0.15. Variant V48G has an abundance fitness of -0.387 ± 0.15. Variant V48T has an abundance fitness of -0.031 ± 0.12. V48P gave an abundance fitness of -1.04 ± 0.37. With L40I the abundance fitness was -0.183 ± 0.12. For L40R, the abundance fitness was -0.217 ± 0.12. L40W showed an abundance fitness of -0.277 ± 0.2. L40C showed an abundance fitness of -0.614 ± 0.17. L40N showed an abundance fitness of -0.945 ± 0.21. With L40A the abundance fitness was -0.731 ± 0.18. L40K showed an abundance fitness of -0.918 ± 0.33. Q6H gave an abundance fitness of 0.427 ± 0.25. For Q6R, the abundance fitness was 0.028 ± 0.11. Variant Q6I has an abundance fitness of -0.133 ± 0.36. In the case of Q6C, the abundance fitness is reported as -0.337 ± 0.3. Q6P showed an abundance fitness of -0.924 ± 0.37. In the case of Q6G, the abundance fitness is reported as -0.72 ± 0.27. For S33D, the abundance fitness was 0.4 ± 0.072. S33P showed an abundance fitness of -0.554 ± 0.2. For S33R, the abundance fitness was 0.59 ± 0.077. Work on S33N yielded an abundance fitness of 0.147 ± 0.089. With S33I the abundance fitness was -0.34 ± 0.15. Work on S33M yielded an abundance fitness of -0.677 ± 0.41. For V31G, the abundance fitness was 0.001 ± 0.071. For V31H, the abundance fitness was -0.369 ± 0.14. V31W showed an abundance fitness of -0.6 ± 0.45. With V31T the abundance fitness was -0.482 ± 0.19. For K47Q, the abundance fitness was -0.856 ± 0.41. In the case of K47I, the abundance fitness is reported as -0.642 ± 0.15. For K47W, the abundance fitness was -0.416 ± 0.24. In the case of K47T, the abundance fitness is reported as -0.284 ± 0.13. K47D gave an abundance fitness of -0.858 ± 0.21. In the case of G26T, the abundance fitness is reported as -0.881 ± 0.24. With G26K the abundance fitness was 0.016 ± 0.3. Work on L1N yielded an abundance fitness of -0.024 ± 0.49. For L1V, the abundance fitness was -0.294 ± 0.34. In the case of L1G, the abundance fitness is reported as -0.053 ± 0.19. Work on L1W yielded an abundance fitness of 0.161 ± 0.2. I28Y showed an abundance fitness of -0.546 ± 0.15. I28D gave an abundance fitness of 0.056 ± 0.13. Variant I28V has an abundance fitness of -0.264 ± 0.098. I28M gave an abundance fitness of -0.065 ± 0.13. I28W gave an abundance fitness of 0.025 ± 0.15. With I28L the abundance fitness was -0.284 ± 0.1. Variant E8K has an abundance fitness of 1.17 ± 0.17. Work on E8S yielded an abundance fitness of 0.048 ± 0.12. Work on E8T yielded an abundance fitness of 0.126 ± 0.25. In the case of E8Q, the abundance fitness is reported as 0.472 ± 0.15. E8L gave an abundance fitness of 0.433 ± 0.1. For E8P, the abundance fitness was -0.363 ± 0.24. With E8I the abundance fitness was 0.744 ± 0.2. E8M showed an abundance fitness of 0.684 ± 0.12. Variant K2S has an abundance fitness of -0.347 ± 0.22. With K2N the abundance fitness was 0.141 ± 0.32. K2V showed an abundance fitness of -0.337 ± 0.45. Work on K2P yielded an abundance fitness of 0.067 ± 0.21. K2E gave an abundance fitness of -0.415 ± 0.32. Variant K2G has an abundance fitness of -0.307 ± 0.17. For K2M, the abundance fitness was -0.593 ± 0.29. In the case of K2T, the abundance fitness is reported as 0.427 ± 0.26. Work on C44V yielded an abundance fitness of -0.455 ± 0.094. Work on C44E yielded an abundance fitness of -0.865 ± 0.41. In the case of C44L, the abundance fitness is reported as -0.35 ± 0.1. For C44F, the abundance fitness was -0.741 ± 0.13. With C44G the abundance fitness was -0.383 ± 0.094. C44P showed an abundance fitness of -0.583 ± 0.2. In the case of S5E, the abundance fitness is reported as 0.099 ± 0.37. With S5Q the abundance fitness was -0.365 ± 0.27. For S5M, the abundance fitness was 0.216 ± 0.18. In the case of S5L, the abundance fitness is reported as -0.289 ± 0.12. Work on S5P yielded an abundance fitness of -0.804 ± 0.33. With S5A the abundance fitness was 0.353 ± 0.16. With S5G the abundance fitness was -1.17 ± 0.48. In the case of Q17C, the abundance fitness is reported as 0.148 ± 0.088. Variant Q17S has an abundance fitness of 0.615 ± 0.07. In the case of Q17I, the abundance fitness is reported as -0.393 ± 0.11. In the case of Q17T, the abundance fitness is reported as 0.2 ± 0.1. Work on Q17R yielded an abundance fitness of 0.296 ± 0.077. For Q17G, the abundance fitness was 0.478 ± 0.067. Q17H showed an abundance fitness of -0.123 ± 0.13. In the case of S12K, the abundance fitness is reported as -0.609 ± 0.3. With S12M the abundance fitness was -0.382 ± 0.22. For S12R, the abundance fitness was -0.315 ± 0.15. S12I gave an abundance fitness of -0.069 ± 0.094. With S12E the abundance fitness was -0.937 ± 0.47. For Y13H, the abundance fitness was -0.104 ± 0.12. Y13L gave an abundance fitness of -0.573 ± 0.11. Work on Y13I yielded an abundance fitness of -0.487 ± 0.1. For Y13W, the abundance fitness was -0.484 ± 0.26. For Y13N, the abundance fitness was -0.472 ± 0.11. Work on Y13R yielded an abundance fitness of 0.458 ± 0.085. Y13D gave an abundance fitness of -0.646 ± 0.17. Variant Y13P has an abundance fitness of -0.21 ± 0.17. Work on Y13A yielded an abundance fitness of -0.505 ± 0.21. For Y13G, the abundance fitness was -0.165 ± 0.11. Variant Y13E has an abundance fitness of -0.499 ± 0.34. With E22I the abundance fitness was -0.795 ± 0.26. E22Y gave an abundance fitness of -0.565 ± 0.14. For E22P, the abundance fitness was -0.225 ± 0.21. E22R gave an abundance fitness of -0.368 ± 0.15. E22D gave an abundance fitness of -0.602 ± 0.16. In the case of E22N, the abundance fitness is reported as -0.654 ± 0.2. Work on E22W yielded an abundance fitness of -0.787 ± 0.25. With E22T the abundance fitness was -0.24 ± 0.24. Work on K3S yielded an abundance fitness of -0.474 ± 0.25. Variant K3M has an abundance fitness of -0.005 ± 0.36. In the case of K3C, the abundance fitness is reported as 0.761 ± 0.34. With K3L the abundance fitness was -0.337 ± 0.14. K3I gave an abundance fitness of 0.207 ± 0.19. In the case of K3W, the abundance fitness is reported as -0.781 ± 0.47. With A15S the abundance fitness was 0.051 ± 0.089. Work on A15G yielded an abundance fitness of -0.152 ± 0.12. A15F showed an abundance fitness of -0.606 ± 0.17. In the case of F11C, the abundance fitness is reported as 0.418 ± 0.14. Work on F11I yielded an abundance fitness of -0.772 ± 0.47. Variant F11G has an abundance fitness of -0.176 ± 0.2. With F11M the abundance fitness was -0.084 ± 0.24. In the case of F11R, the abundance fitness is reported as 0.145 ± 0.15. With F11S the abundance fitness was -0.333 ± 0.21. Variant A9V has an abundance fitness of -1.13 ± 0.43. With A9T the abundance fitness was -0.476 ± 0.28. Variant K45Q has an abundance fitness of -0.577 ± 0.5. K45H gave an abundance fitness of 0.232 ± 0.12. K45A showed an abundance fitness of -0.765 ± 0.19. Work on K45I yielded an abundance fitness of -0.937 ± 0.18. Variant K45S has an abundance fitness of -0.691 ± 0.17.
